Source: paper PMC7320144 (Nature Communications, 2020)

What was measured:
[1] = target: T1, PfISN1 (IMP-specific nucleotidase 1) (Plasmodium falciparum, UniProt A0A144A134); assay: crystal structure; enzyme activation at pH […]; type: biochemical
T1 construct: gene ISN1; wild-type, full-length

[2] = target: PfISN1 D172N (full-length inactive mutant) (Plasmodium falciparum); assay: crystal structure
[3] = target: PfISN1 D172N-ΔN30 (Plasmodium falciparum); assay: crystal structure
[4] = test system: O=[N+]([O-])c1ccc(OP(=O)(O)O)cc1; assay: purified protein; type: biochemical, Plasmodium falciparum; conditions: Mg2+; 25.0 °C
[5] = target: the molecule itself; assay: crystal structure; vapour diffusion in sitting drops at 292 K; protein 13 mg/mL in 50 mM Tris-HCl pH 8.0, 100 mM NaCl (or 50 mM MES pH 5.0, 100 mM NaCl); apo, ATP-bound or IMP-Mg2+-bound forms; homo-tetramer

Molecule: Nc1ncnc2c1ncn2[C@@H]1O[C@H](COP(=O)(O)OP(=O)(O)OP(=O)(O)O)[C@@H](O)[C@H]1O [ATP]
- EC50 [1]: 3.8 ± 0.7 mM

Molecule: PfISN1 D172N (full-length inactive mutant) (from UniProt A0A144A134 1-444) (enzyme)
- stoichiometry N [2]: 4

Molecule: PfISN1 D172N-ΔN30 (from UniProt A0A144A134 31-444) (domain or fragment)
- stoichiometry N [3]: 4

Molecule: PfISN1 (IMP-specific nucleotidase 1) (Plasmodium falciparum 3D7; D172N)
- Km [4]: 1510 ± 150 µM
- kcat [4]: 0.28 ± 0.01 s⁻¹
- kcat/Km [4]: 190 ± 20 M⁻¹ s⁻¹

B1: Plasmodium falciparum IMP-specific nucleotidase 1 (PfISN1), wild type (enzyme, UniProt A0A144A134 1-444, looked up)
chain: MKNLDINTFDNIEDIPLGSSEQDPYDFFTLSDRNVMNSDMKKNIVQWNSRYSYNQLKNKDSLIMFLVEIFRSLFVSNCIDKNIDNVLLSIEEMFIDHYYNPQHSRLKYLIDDVGIFFTKLPITKAFHTYNKKYRITKRLYAPPTFNEVRHILNLAQILSLEEGLDLLTFDADETLYPDGHDFNDEVLASYISCLLKKMNIAIVTAASYNNDAEKYQKRLENLLKYFSKHNIKDGSYKNFYVMGGESNYLFKCNEEATLYSVPENEWRHYKKFVDYDTVQEILNISEKCLEKVIKDFGLCAQIQRKEKSIGLVPNKIPSLNIKNEQKNYMIKYEVLEEAVIRIKKEIIKNKITAPYCAFNGGQDLWVDVGNKAEGLLILQKLLKIQKKKCCHIGDQFLHSGNDFPTRFCSLTLWVSNPQETKACLKSIMHLNIKSFIPEVLYENQ
notes: IMP-specific 5'-nucleotidase 1 (ISN1, EC 3.1.3.99) of Plasmodium falciparum, 444 amino acids, gene PF3D7_1206100; domains M1-K59 (NTRD), D60-T143 (OD), F144-K270 and K371-Q444 (CD), K271-N370 (cap); Cloned into pET-21bN; details of constructs and of purification for structural studies are in Supplementary Methods; A selenomethionine derivative (E. coli B834 (DE3)) was used for phasing; also …
- stoichiometry N [5]: 4

B2: PfISN1-ΔC10 (domain or fragment, Plasmodium falciparum, UniProt A0A144A134 1-434, looked up)
chain: MKNLDINTFDNIEDIPLGSSEQDPYDFFTLSDRNVMNSDMKKNIVQWNSRYSYNQLKNKDSLIMFLVEIFRSLFVSNCIDKNIDNVLLSIEEMFIDHYYNPQHSRLKYLIDDVGIFFTKLPITKAFHTYNKKYRITKRLYAPPTFNEVRHILNLAQILSLEEGLDLLTFDADETLYPDGHDFNDEVLASYISCLLKKMNIAIVTAASYNNDAEKYQKRLENLLKYFSKHNIKDGSYKNFYVMGGESNYLFKCNEEATLYSVPENEWRHYKKFVDYDTVQEILNISEKCLEKVIKDFGLCAQIQRKEKSIGLVPNKIPSLNIKNEQKNYMIKYEVLEEAVIRIKKEIIKNKITAPYCAFNGGQDLWVDVGNKAEGLLILQKLLKIQKKKCCHIGDQFLHSGNDFPTRFCSLTLWVSNPQETKACLKSIMHLNIKS
notes: PfISN1 (444 amino acids, gene PF3D7_1206100) truncated by ten residues at the C-terminus; Construct details are in Supplementary Methods; also called ∆C10-truncated PfISN1; source: E. coli BL21-CodonPlus (DE3)-RIL (structural studies), purified
- stoichiometry N [5]: 4

B3: PfISN1-ΔN59 (domain or fragment, Plasmodium falciparum, UniProt A0A144A134 60-444, looked up)
chain: DSLIMFLVEIFRSLFVSNCIDKNIDNVLLSIEEMFIDHYYNPQHSRLKYLIDDVGIFFTKLPITKAFHTYNKKYRITKRLYAPPTFNEVRHILNLAQILSLEEGLDLLTFDADETLYPDGHDFNDEVLASYISCLLKKMNIAIVTAASYNNDAEKYQKRLENLLKYFSKHNIKDGSYKNFYVMGGESNYLFKCNEEATLYSVPENEWRHYKKFVDYDTVQEILNISEKCLEKVIKDFGLCAQIQRKEKSIGLVPNKIPSLNIKNEQKNYMIKYEVLEEAVIRIKKEIIKNKITAPYCAFNGGQDLWVDVGNKAEGLLILQKLLKIQKKKCCHIGDQFLHSGNDFPTRFCSLTLWVSNPQETKACLKSIMHLNIKSFIPEVLYENQ
notes: PfISN1 (444 amino acids, gene PF3D7_1206100) with the N-terminal regulatory domain (NTRD, M1 to K59) deleted; limits worked out from the name ΔN59 and the printed domain limits; Co-crystallized with IMP, IMP not observed in the structure; Construct details are in Supplementary Methods; also called ∆N59-truncated PfISN1; source: E. coli BL21-CodonPlus (DE3)-RIL (structural studies), purified
- stoichiometry N [5]: 4
